Values of other authors as cited in article PMC2582146 (Biochemistry, 2008).

Molecular target: N1P1 domain
Settings: read-out: affinity

B1: C-terminal 70 residues of CFTR: C-terminal 70 residues of CFTR, literature construct (ref 41) (protein, UniProt P13569 1411-1480, looked up, fragment)
chain: QQFLVIEENKVRQYDSIQKLLNERSLFRQAISPSDRVKLFPHRNSSKCKSKPQIAALKEETEEEVQDTRL
  Kd: 298 nM
